Results published in patent US20210380703A1.

Target: Human Fc (human)
Experiment: ELISA, negative control

B1: 371_A07 (antibody, V domains shown)
VH: EVQLLESGGGLVQPGGSLRLSCAASGFTFSDYSMNWVRQAPGKGLEWVSNINYNGGYKSYADSVKGRFTISRDNSKNTLYLQMNSLRAEDTAVYYCARSANWHDTALDYWGQGTLVTVSS
VL: DIQMTQSPSSLSASVGDRVTITCRASQSILSYLNWYQQKPGKAPKLVIYATTSRASGVPSRFSGSGSGTDFTLTISSLQPEDFATYYCQQSYDLPLTFGGGTKVEIK
An optical density of 0.336 OD was found for B1 in this work.

B2: 371_A08 (antibody, V domains shown)
VH: EVQLLESGGGLVQPGGSLRLSCAASGFTFSSYGMHWVRQAPGKGLEWVSSINYNGGYTSYADSVKGRFTISRDNSKNTLYLQMNSLRAEDTAVYYCARSANWHDTALDYWGQGTLVTVSS
VL: DIQMTQSPSSLSASVGDRVTITCRASQSILSYLNWYQQKPGKAPKLVIYAATSRASGVPSRFSGSGSGTDFTLTISSLQPEDFATYYCQQSYELPLTFGGGTKVEIK
An optical density of 0.304 OD was found for B2 in this work.

B3: 371_A12 (antibody, V domains shown)
VH: EVQLLESGGGLVQPGGSLRLSCAASGFTFDSYSMNWVRQAPGKGLEWVAGINYNSGYTSYADSVKGRFTISRDNSKNTLYLQMNSLRAEDTAVYYCARSANWHDTALDYWGQGTLVTVSS
VL: DIQMTQSPSSLSASVGDRVTITCRASQSILSYVNWYQQKPGKAPKLVIYAATSLASGVPSRFSGSGSGTDFTLTISSLQPEDFATYYCQQSYDTPLTFGGGTKVEIK
An optical density of 0.483 OD was found for B3 in this work.

B4: 371_B06 (antibody, V domains shown)
VH: EVQLLESGGGLVQPGGSLRLSCAASGFTFDSYSMNWVRQAPGKGLEWVAGINYNGGYKSYADSVKGRFTISRDNSKNTLYLQMNSLRAEDTAVYYCARSANWHDTALDYWGQGTLVTVSS
VL: DIQMTQSPSSLSASVGDRVTITCRASQSILTYVNWYQQKPGKAPKLVIYAATSRHSGVPSRFSGSGSGTDFTLTISSLQPEDFATYYCQQSYNLPLTFGGGTKVEIK
An optical density of 0.356 OD was found for B4 in this work.

B5: 371_B07 (antibody, V domains shown)
VH: EVQLLESGGGLVQPGGSLRLSCAASGFTFDSYSMNWVRQAPGKGLEWVAGINYNGGYTSYADSVKGRFTISRDNSKNTLYLQMNSLRAEDTAVYYCARSANWHDTALDYWGQGTLVTVSS
VL: DIQMTQSPSSLSASVGDRVTITCRASQSILTYVNWYQQKPGKAPKLLIYAATSRASGVPSRFSGSGSGTDFTLTISSLQPEDFATYYCQQSYELPLTFGGGTKVEIK
An optical density of 0.308 OD was found for B5 in this work.

B6: 371_D09 (antibody, V domains shown)
VH: EVQLLESGGGLVQPGGSLRLSCAASGFTFSSYSMNWVRQAPGKGLEWVSNINYNSGYTGYADSVKGRFTISRDNSKNTLYLQMNSLRAEDTAVYYCARSANWHDTALDYWGQGTLVTVSS
VL: DIQMTQSPSSLSASVGDRVTITCRASQSILTYLNWYQQKPGKAPKLVIYAATSRASGVPSRFSGSGSGTDFTLTISSLQPEDFATYYCQQSYNNPLTFGGGTKVEIK
An optical density of 0.268 OD was found for B6 in this work.

B7: 371_F01 (antibody, V domains shown)
VH: EVQLLESGGGLVQPGGSLRLSCAASGFTFSSYSMNWVRQAPGKGLEWVAGINYNGGYTGYADSVKGRFTISRDNSKNTLYLQMNSLRAEDTAVYYCARSANWHDTALDYWGQGTLVTVSS
VL: DIQMTQSPSSLSASVGDRVTITCRASQSILTYVNWYQQKPGKAPKLVIYAATSLASGVPSRFSGSGSGTDFTLTISSLQPEDFATYYCQQSYNNPLTFGGGTKVEIK
An optical density of 0.41 OD was found for B7 in this work.

B8: 371_F04 (antibody, V domains shown)
VH: EVQLLESGGGLVQPGGSLRLSCAASGFTFDSYSMNWVRQAPGKGLEWVAGINYNSGYKGYADSVKGRFTISRDNSKNTLYLQMNSLRAEDTAVYYCARSANWHDTALDYWGQGTLVTVSS
VL: DIQMTQSPSSLSASVGDRVTITCRASQSILSYLNWYQQKPGKAPKLLIYAATSRHSGVPSRFSGSGSGTDFTLTISSLQPEDFATYYCQQSYNNPLTFGGGTKVEIK
An optical density of 0.345 OD was found for B8 in this work.

B9: 371_F06 (antibody, V domains shown)
VH: EVQLLESGGGLVQPGGSLRLSCAASGFTFDSYSMNWVRQAPGKGLEWVANINYNGGYTSYADSVKGRFTISRDNSKNTLYLQMNSLRAEDTAVYYCARSANWHDTALDYWGQGTLVTVSS
VL: DIQMTQSPSSLSASVGDRVTITCRASQSIVSYLNWYQQKPGKAPKLVIYAATSRHSGVPSRFSGSGSGTDFTLTISSLQPEDFATYYCQQSYNSPLTFGGGTKVEIK
An optical density of 0.289 OD was found for B9 in this work.

B10: 371_F08 (antibody, V domains shown)
VH: EVQLLESGGGLVQPGGSLRLSCAASGFTFDDYSMNWVRQAPGKGLEWVSGINYNGGYTGYADSVKGRFTISRDNSKNTLYLQMNSLRAEDTAVYYCARSANWHDTALDYWGQGTLVTVSS
VL: DIQMTQSPSSLSASVGDRVTITCRASQSIVSYVNWYQQKPGKAPKLVIYAATSRHSGVPSRFSGSGSGTDFTLTISSLQPEDFATYYCQQSYESPLTFGGGTKVEIK
An optical density of 0.301 OD was found for B10 in this work.

B11: 371_G10 (antibody, V domains shown)
VH: EVQLLESGGGLVQPGGSLRLSCAASGFTFSSYSMNWVRQAPGKGLEWVSGINYNGGYKSYADSVKGRFTISRDNSKNTLYLQMNSLRAEDTAVYYCARSANWHDTALDYWGQGTLVTVSS
VL: DIQMTQSPSSLSASVGDRVTITCRASQSISSYVNWYQQKPGKAPKLLIYAATSRHSGVPSRFSGSGSGTDFTLTISSLQPEDFATYYCQQSDDSPLTFGGGTKVEIK
An optical density of 0.439 OD was found for B11 in this work.

B12: 371_H09 (antibody, V domains shown)
VH: EVQLLESGGGLVQPGGSLRLSCAASGFTFDSYSMNWVRQAPGKGLEWVSNINYNGGYTSYADSVKGRFTISRDNSKNTLYLQMNSLRAEDTAVYYCARSANWHDTALDYWGQGTLVTVSS
VL: DIQMTQSPSSLSASVGDRVTITCRASQSILTYVNWYQQKPGKAPKLVIYAATSLASGVPSRFSGSGSGTDFTLTISSLQPEDFATYYCQQSYDSPLTFGGGTKVEIK
An optical density of 0.32 OD was found for B12 in this work.

B13: 372_A04 (antibody, V domains shown)
VH: EVQLLESGGGLVQPGGSLRLSCAASGFTFDSYSMNWVRQAPGKGLEWVSGINYNSGYTSYADSVKGRFTISRDNSKNTLYLQMNSLRAEDTAVYYCARSANWHDTALDYWGQGTLVTVSS
VL: DIQMTQSPSSLSASVGDRVTITCRASQSILTYLNWYQQKPGKAPKLVIYAATSRASGVPSRFSGSGSGTDFTLTISSLQPEDFATYYCQQSYETPLTFGGGTKVEIK
An optical density of 0.339 OD was found for B13 in this work.

B14: 372_B04 (antibody, V domains shown)
VH: EVQLLESGGGLVQPGGSLRLSCAASGFTFDSYGMNWVRQAPGKGLEWVANINYNGGYTSYADSVKGRFTISRDNSKNTLYLQMNSLRAEDTAVYYCARSANWHDTALDYWGQGTLVTVSS
VL: DIQMTQSPSSLSASVGDRVTITCRASQSILSYVNWYQQKPGKAPKLVIYAATSLASGVPSRFSGSGSGTDFTLTISSLQPEDFATYYCQQSYDSPLTFGGGTKVEIK
An optical density of 0.333 OD was found for B14 in this work.

B15: 372_C07 (antibody, V domains shown)
VH: EVQLLESGGGLVQPGGSLRLSCAASGFTFSDYSMNWVRQAPGKGLEWVSNINYNSGYTSYADSVKGRFTISRDNSKNTLYLQMNSLRAEDTAVYYCARSANWHDTHLDYWGQGTLVTVSS
VL: DIQMTQSPSSLSASVGDRVTITCRASQSILSYLNWYQQKPGKAPKLVIYAATSRHSGVPSRFSGSGSGTDFTLTISSLQPEDFATYYCQQSDNTPLTFGGGTKVEIK
An optical density of 0.279 OD was found for B15 in this work.

B16: 372_D02 (antibody, V domains shown)
VH: EVQLLESGGGLVQPGGSLRLSCAASGFTFSSYGMHWVRQAPGKGLEWVAGINYNGGYTGYADSVKGRFTISRDNSKNTLYLQMNSLRAEDTAVYYCARSANWHDTALDYWGQGTLVTVSS
VL: DIQMTQSPSSLSASVGDRVTITCRASQSILTYLNWYQQKPGKAPKLVIYAATSRASGVPSRFSGSGSGTDFTLTISSLQPEDFATYYCQQSYDNPLTFGGGTKVEIK
An optical density of 0.433 OD was found for B16 in this work.

B17: 372_F03 (antibody, V domains shown)
VH: EVQLLESGGGLVQPGGSLRLSCAASGFTFSSYGMNWVRQAPGKGLEWVAGINYNGGYTSYADSVKGRFTISRDNSKNTLYLQMNSLRAEDTAVYYCARSANWHDTALDYWGQGTLVTVSS
VL: DIQMTQSPSSLSASVGDRVTITCRASQSILSYLNWYQQKPGKAPKLVIYAATSRASGVPSRFSGSGSGTDFTLTISSLQPEDFATYYCQQSYDTPLTFGGGTKVEIK
An optical density of 0.438 OD was found for B17 in this work.

B18: 372_F06 (antibody, V domains shown)
VH: EVQLLESGGGLVQPGGSLRLSCAASGFTFSDYGMNWVRQAPGKGLEWVAGINYNGGYKSYADSVKGRFTISRDNSKNTLYLQMNSLRAEDTAVYYCARSANWHDTALDYWGQGTLVTVSS
VL: DIQMTQSPSSLSASVGDRVTITCRASQSILSYVNWYQQKPGKAPKLLIYAATSLASGVPSRFSGSGSGTDFTLTISSLQPEDFATYYCQQSYETPLTFGGGTKVEIK
An optical density of 0.38 OD was found for B18 in this work.

B19: 372_F08 (antibody, V domains shown)
VH: EVQLLESGGGLVQPGGSLRLSCAASGFTFSDYSMNWVRQAPGKGLEWVSNINYNSGYTGYADSVKGRFTISRDNSKNTLYLQMNSLRAEDTAVYYCARSANWHDTALDYWGQGTLVTVSS
VL: DIQMTQSPSSLSASVGDRVTITCRASQSILTYVNWYQQKPGKAPKLVIYAATSRASGVPSRFSGSGSGTDFTLTISSLQPEDFATYYCQQSYDTPLTFGGGTKVEIK
An optical density of 0.335 OD was found for B19 in this work.

B20: 373_A08 (antibody, V domains shown)
VH: EVQLLESGGGLVQPGGSLRLSCAASGFTFDSYGMNWVRQAPGKGLEWVSNINYNGGYTGYADSVKGRFTISRDNSKNTLYLQMNSLRAEDTAVYYCARSANWHDTALDYWGQGTLVTVSS
VL: DIQMTQSPSSLSASVGDRVTITCRASQSIVSYVNWYQQKPGKAPKLLIYAATSLASGVPSRFSGSGSGTDFTLTISSLQPEDFATYYCQQSYSLPLTFGGGTKVEIK
An optical density of 0.195 OD was found for B20 in this work.

B21: 373_A10 (antibody, V domains shown)
VH: EVQLLESGGGLVQPGGSLRLSCAASGFTFSSYGMNWVRQAPGKGLEWVSGINYNSGYTSYADSVKGRFTISRDNSKNTLYLQMNSLRAEDTAVYYCARSANWHDTALDYWGQGTLVTVSS
VL: DIQMTQSPSSLSASVGDRVTITCRASQSILSYLNWYQQKPGKAPKLVIYAATSRASGVPSRFSGSGSGTDFTLTISSLQPEDFATYYCQQSYDLPLTFGGGTKVEIK
An optical density of 0.175 OD was found for B21 in this work.

B22: 373_B04 (antibody, V domains shown)
VH: EVQLLESGGGLVQPGGSLRLSCAASGFTFSSYGMNWVRQAPGKGLEWVAGINYNSGYKGYADSVKGRFTISRDNSKNTLYLQMNSLRAEDTAVYYCARSANWHDTALDYWGQGTLVTVSS
VL: DIQMTQSPSSLSASVGDRVTITCRASQSILTYLNWYQQKPGKAPKLLIYAATSRASGVPSRFSGSGSGTDFTLTISSLQPEDFATYYCQQSYETPLTFGGGTKVEIK
An optical density of 0.176 OD was found for B22 in this work.
